Drawing on patent publication US20140087995A1 (published 2014), this text covers IC50 for six molecules.

Numbered stars: 1 amine (or outer) side, 2 acyl side, 3 side chain; on linkers, the order of the positions; unused ones are H or OH. Bridge positions count the residues as written; N and C are the ends. Side chains are listed from the residue outwards. Ends that are not written are not given here. * marks the point of attachment. C20 diacid = O=C(O)CCCCCCCCCCCCCCCCCCC(=O)*; γGlu = O=C(O)[C@H](CCC(=O)[*:2])N[*:1]; AEEA = NCCOCCOCC(=O)O

B1: N^ε1-[2-[2-[2-(19-carboxynonadecanoylamino)ethoxy]ethoxy]acetyl]-[His14,Arg17,Pro21,Pro27]-h-amylin (peptide)
peptide: K([AEEA-C20 diacid])CNTATCATQRLAHFLRHSSPNFGAIPSSTNVGSNTY-NH2
modifications: disulfide 2-7; N-terminus assumed
SMILES: CC[C@H](C)[C@H](NC(=O)[C@H](C)NC(=O)CNC(=O)[C@H](Cc1ccccc1)NC(=O)[C@H](CC(N)=O)NC(=O)[C@@H]1CCCN1C(=O)[C@H](CO)NC(=O)[C@H](CO)NC(=O)[C@H](Cc1c[nH]cn1)NC(=O)[C@H](CCCNC(=N)N)NC(=O)[C@H](CC(C)C)NC(=O)[C@H](Cc1ccccc1)NC(=O)[C@H](Cc1c[nH]cn1)NC(=O)[C@H](C)NC(=O)[C@H](CC(C)C)NC(=O)[C@H](CCCNC(=N)N)NC(=O)[C@H](CCC(N)=O)NC(=O)[C@@H](NC(=O)[C@H](C)NC(=O)[C@@H]1CSSC[C@H](NC(=O)[C@@H](N)CCCCNC(=O)COCCOCCNC(=O)CCCCCCCCCCCCCCCCCCC(=O)O)C(=O)N[C@@H](CC(N)=O)C(=O)N[C@@H]([C@@H](C)O)C(=O)N[C@@H](C)C(=O)N[C@@H]([C@@H](C)O)C(=O)N1)[C@@H](C)O)C(=O)N1CCC[C@H]1C(=O)N[C@@H](CO)C(=O)N[C@@H](CO)C(=O)N[C@H](C(=O)N[C@@H](CC(N)=O)C(=O)N[C@H](C(=O)NCC(=O)N[C@@H](CO)C(=O)N[C@@H](CC(N)=O)C(=O)N[C@H](C(=O)N[C@@H](Cc1ccc(O)cc1)C(N)=O)[C@@H](C)O)C(C)C)[C@@H](C)O
notes: also called 14H, 17R, 21P, 27P
B2: N^ε1-[2-[2-[2-[[2-[2-[2-[[(4S)-4-carboxy-4-(19-carboxynonadecanoylamino)butanoyl]amino]ethoxy]ethoxy]acetyl]amino]ethoxy]ethoxy]acetyl]-[Arg17,Pro21,Pro27,Pro31 … (peptide)
peptide: K([AEEA-AEEA-γGlu-C20 diacid])CNTATCATQRLANFLRHSSPNFGAIPSSTPVGSNTY-NH2
modifications: disulfide 2-7; N-terminus assumed
SMILES: CC[C@H](C)[C@H](NC(=O)[C@H](C)NC(=O)CNC(=O)[C@H](Cc1ccccc1)NC(=O)[C@H](CC(N)=O)NC(=O)[C@@H]1CCCN1C(=O)[C@H](CO)NC(=O)[C@H](CO)NC(=O)[C@H](Cc1c[nH]cn1)NC(=O)[C@H](CCCNC(=N)N)NC(=O)[C@H](CC(C)C)NC(=O)[C@H](Cc1ccccc1)NC(=O)[C@H](CC(N)=O)NC(=O)[C@H](C)NC(=O)[C@H](CC(C)C)NC(=O)[C@H](CCCNC(=N)N)NC(=O)[C@H](CCC(N)=O)NC(=O)[C@@H](NC(=O)[C@H](C)NC(=O)[C@@H]1CSSC[C@H](NC(=O)[C@@H](N)CCCCNC(=O)COCCOCCNC(=O)COCCOCCNC(=O)CC[C@H](NC(=O)CCCCCCCCCCCCCCCCCCC(=O)O)C(=O)O)C(=O)N[C@@H](CC(N)=O)C(=O)N[C@@H]([C@@H](C)O)C(=O)N[C@@H](C)C(=O)N[C@@H]([C@@H](C)O)C(=O)N1)[C@@H](C)O)C(=O)N1CCC[C@H]1C(=O)N[C@@H](CO)C(=O)N[C@@H](CO)C(=O)N[C@H](C(=O)N1CCC[C@H]1C(=O)N[C@H](C(=O)NCC(=O)N[C@@H](CO)C(=O)N[C@@H](CC(N)=O)C(=O)N[C@H](C(=O)N[C@@H](Cc1ccc(O)cc1)C(N)=O)[C@@H](C)O)C(C)C)[C@@H](C)O
notes: also called 17R, 21P, 27P, 31P
B3: N^ε1-[2-[2-[2-[[2-[2-[2-[[(4S)-4-carboxy-4-(19-carboxynonadecanoylamino)butanoyl]amino]ethoxy]ethoxy]acetyl]amino]ethoxy]ethoxy]acetyl]-[Arg17,Pro21,Pro27,Pro34 … (peptide)
peptide: K([AEEA-AEEA-γGlu-C20 diacid])CNTATCATQRLANFLRHSSPNFGAIPSSTNVGPNTY-NH2
modifications: disulfide 2-7; N-terminus assumed
SMILES: CC[C@H](C)[C@H](NC(=O)[C@H](C)NC(=O)CNC(=O)[C@H](Cc1ccccc1)NC(=O)[C@H](CC(N)=O)NC(=O)[C@@H]1CCCN1C(=O)[C@H](CO)NC(=O)[C@H](CO)NC(=O)[C@H](Cc1c[nH]cn1)NC(=O)[C@H](CCCNC(=N)N)NC(=O)[C@H](CC(C)C)NC(=O)[C@H](Cc1ccccc1)NC(=O)[C@H](CC(N)=O)NC(=O)[C@H](C)NC(=O)[C@H](CC(C)C)NC(=O)[C@H](CCCNC(=N)N)NC(=O)[C@H](CCC(N)=O)NC(=O)[C@@H](NC(=O)[C@H](C)NC(=O)[C@@H]1CSSC[C@H](NC(=O)[C@@H](N)CCCCNC(=O)COCCOCCNC(=O)COCCOCCNC(=O)CC[C@H](NC(=O)CCCCCCCCCCCCCCCCCCC(=O)O)C(=O)O)C(=O)N[C@@H](CC(N)=O)C(=O)N[C@@H]([C@@H](C)O)C(=O)N[C@@H](C)C(=O)N[C@@H]([C@@H](C)O)C(=O)N1)[C@@H](C)O)C(=O)N1CCC[C@H]1C(=O)N[C@@H](CO)C(=O)N[C@@H](CO)C(=O)N[C@H](C(=O)N[C@@H](CC(N)=O)C(=O)N[C@H](C(=O)NCC(=O)N1CCC[C@H]1C(=O)N[C@@H](CC(N)=O)C(=O)N[C@H](C(=O)N[C@@H](Cc1ccc(O)cc1)C(N)=O)[C@@H](C)O)C(C)C)[C@@H](C)O
notes: also called 17R, 21P, 27P, 34P
B4: N^ε1-[2-[2-[2-[[(4S)-4-carboxy-4-(19-carboxynonadecanoylamino)butanoyl]amino]ethoxy]ethoxy]acetyl]-[Ala14,Arg17,Pro21,Pro27,Pro31]-h-amylin (peptide)
peptide: K([AEEA-γGlu-C20 diacid])CNTATCATQRLAAFLRHSSPNFGAIPSSTPVGSNTY-NH2
modifications: disulfide 2-7; N-terminus assumed
SMILES: CC[C@H](C)[C@H](NC(=O)[C@H](C)NC(=O)CNC(=O)[C@H](Cc1ccccc1)NC(=O)[C@H](CC(N)=O)NC(=O)[C@@H]1CCCN1C(=O)[C@H](CO)NC(=O)[C@H](CO)NC(=O)[C@H](Cc1c[nH]cn1)NC(=O)[C@H](CCCNC(=N)N)NC(=O)[C@H](CC(C)C)NC(=O)[C@H](Cc1ccccc1)NC(=O)[C@H](C)NC(=O)[C@H](C)NC(=O)[C@H](CC(C)C)NC(=O)[C@H](CCCNC(=N)N)NC(=O)[C@H](CCC(N)=O)NC(=O)[C@@H](NC(=O)[C@H](C)NC(=O)[C@@H]1CSSC[C@H](NC(=O)[C@@H](N)CCCCNC(=O)COCCOCCNC(=O)CC[C@H](NC(=O)CCCCCCCCCCCCCCCCCCC(=O)O)C(=O)O)C(=O)N[C@@H](CC(N)=O)C(=O)N[C@@H]([C@@H](C)O)C(=O)N[C@@H](C)C(=O)N[C@@H]([C@@H](C)O)C(=O)N1)[C@@H](C)O)C(=O)N1CCC[C@H]1C(=O)N[C@@H](CO)C(=O)N[C@@H](CO)C(=O)N[C@H](C(=O)N1CCC[C@H]1C(=O)N[C@H](C(=O)NCC(=O)N[C@@H](CO)C(=O)N[C@@H](CC(N)=O)C(=O)N[C@H](C(=O)N[C@@H](Cc1ccc(O)cc1)C(N)=O)[C@@H](C)O)C(C)C)[C@@H](C)O
notes: also called 14A, 17R, 21P, 27P, 31P
B5: N^ε1-[2-[2-[2-[[2-[2-[2-[[(4S)-4-carboxy-4-(19-carboxynonadecanoylamino)butanoyl]amino]ethoxy]ethoxy]acetyl]amino]ethoxy]ethoxy]acetyl]-[Arg17,Pro21,Pro27,His34 … (peptide)
peptide: K([AEEA-AEEA-γGlu-C20 diacid])CNTATCATQRLANFLRHSSPNFGAIPSSTNVGHNTY-NH2
modifications: disulfide 2-7; N-terminus assumed
SMILES: CC[C@H](C)[C@H](NC(=O)[C@H](C)NC(=O)CNC(=O)[C@H](Cc1ccccc1)NC(=O)[C@H](CC(N)=O)NC(=O)[C@@H]1CCCN1C(=O)[C@H](CO)NC(=O)[C@H](CO)NC(=O)[C@H](Cc1c[nH]cn1)NC(=O)[C@H](CCCNC(=N)N)NC(=O)[C@H](CC(C)C)NC(=O)[C@H](Cc1ccccc1)NC(=O)[C@H](CC(N)=O)NC(=O)[C@H](C)NC(=O)[C@H](CC(C)C)NC(=O)[C@H](CCCNC(=N)N)NC(=O)[C@H](CCC(N)=O)NC(=O)[C@@H](NC(=O)[C@H](C)NC(=O)[C@@H]1CSSC[C@H](NC(=O)[C@@H](N)CCCCNC(=O)COCCOCCNC(=O)COCCOCCNC(=O)CC[C@H](NC(=O)CCCCCCCCCCCCCCCCCCC(=O)O)C(=O)O)C(=O)N[C@@H](CC(N)=O)C(=O)N[C@@H]([C@@H](C)O)C(=O)N[C@@H](C)C(=O)N[C@@H]([C@@H](C)O)C(=O)N1)[C@@H](C)O)C(=O)N1CCC[C@H]1C(=O)N[C@@H](CO)C(=O)N[C@@H](CO)C(=O)N[C@H](C(=O)N[C@@H](CC(N)=O)C(=O)N[C@H](C(=O)NCC(=O)N[C@@H](Cc1c[nH]cn1)C(=O)N[C@@H](CC(N)=O)C(=O)N[C@H](C(=O)N[C@@H](Cc1ccc(O)cc1)C(N)=O)[C@@H](C)O)C(C)C)[C@@H](C)O
notes: also called 17R, 21P, 27P, 34H
B6: N^ε1-[2-[2-[2-[[2-[2-[2-[[(4S)-4-carboxy-4-(19-carboxynonadecanoylamino)butanoyl]amino]ethoxy]ethoxy]acetyl]amino]ethoxy]ethoxy]acetyl]-[Arg17,Pro21,Pro27,Glu35 … (peptide)
peptide: K([AEEA-AEEA-γGlu-C20 diacid])CNTATCATQRLANFLRHSSPNFGAIPSSTNVGSETY-NH2
modifications: disulfide 2-7; N-terminus assumed
SMILES: CC[C@H](C)[C@H](NC(=O)[C@H](C)NC(=O)CNC(=O)[C@H](Cc1ccccc1)NC(=O)[C@H](CC(N)=O)NC(=O)[C@@H]1CCCN1C(=O)[C@H](CO)NC(=O)[C@H](CO)NC(=O)[C@H](Cc1c[nH]cn1)NC(=O)[C@H](CCCNC(=N)N)NC(=O)[C@H](CC(C)C)NC(=O)[C@H](Cc1ccccc1)NC(=O)[C@H](CC(N)=O)NC(=O)[C@H](C)NC(=O)[C@H](CC(C)C)NC(=O)[C@H](CCCNC(=N)N)NC(=O)[C@H](CCC(N)=O)NC(=O)[C@@H](NC(=O)[C@H](C)NC(=O)[C@@H]1CSSC[C@H](NC(=O)[C@@H](N)CCCCNC(=O)COCCOCCNC(=O)COCCOCCNC(=O)CC[C@H](NC(=O)CCCCCCCCCCCCCCCCCCC(=O)O)C(=O)O)C(=O)N[C@@H](CC(N)=O)C(=O)N[C@@H]([C@@H](C)O)C(=O)N[C@@H](C)C(=O)N[C@@H]([C@@H](C)O)C(=O)N1)[C@@H](C)O)C(=O)N1CCC[C@H]1C(=O)N[C@@H](CO)C(=O)N[C@@H](CO)C(=O)N[C@H](C(=O)N[C@@H](CC(N)=O)C(=O)N[C@H](C(=O)NCC(=O)N[C@@H](CO)C(=O)N[C@@H](CCC(=O)O)C(=O)N[C@H](C(=O)N[C@@H](Cc1ccc(O)cc1)C(N)=O)[C@@H](C)O)C(C)C)[C@@H](C)O
notes: also called 17R, 21P, 27P, 35E

For the assay, the target named is T1, human amylin receptor (human, UniProt P30988 25-474; O60896 24-148, limits assumed).
T1 construct: whole, on cells; Calcitonin receptor plus RAMP-3 gives the amylin 3(a) receptor; membranes of Amylin 3(a)/CRE-luc cells were used; also called hAmylin-R; hAmylinR
T1 sequence (looked up) 1: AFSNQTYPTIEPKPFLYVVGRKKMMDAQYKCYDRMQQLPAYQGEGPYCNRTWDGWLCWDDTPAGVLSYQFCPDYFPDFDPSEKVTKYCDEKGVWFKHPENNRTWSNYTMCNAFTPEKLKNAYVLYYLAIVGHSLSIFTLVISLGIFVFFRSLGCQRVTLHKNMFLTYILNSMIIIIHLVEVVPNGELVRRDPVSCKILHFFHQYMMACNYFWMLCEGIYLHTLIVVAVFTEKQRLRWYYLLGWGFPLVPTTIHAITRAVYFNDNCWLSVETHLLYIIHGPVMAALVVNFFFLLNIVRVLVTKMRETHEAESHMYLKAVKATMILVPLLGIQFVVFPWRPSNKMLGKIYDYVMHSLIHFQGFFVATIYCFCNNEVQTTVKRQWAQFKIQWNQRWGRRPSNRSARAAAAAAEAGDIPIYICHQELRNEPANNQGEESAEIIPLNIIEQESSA
T1 sequence (looked up) 2: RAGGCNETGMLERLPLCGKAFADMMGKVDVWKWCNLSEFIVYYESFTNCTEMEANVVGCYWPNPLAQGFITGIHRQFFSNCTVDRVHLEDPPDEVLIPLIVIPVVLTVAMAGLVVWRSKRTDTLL
Description: SPA competition binding, displacement of 125I-rat amylin from membranes with human amylin 3(a) receptor (Assay V). The method, boiled down:
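SPA beads with BHK Amylin 3(a)/CRE-luc cell membranes (35 ng/μL final) in 50 mM Hepes pH 7.4, 1 mM CaCl2, 5 mM MgCl₂, 0.1% OA, 0.02% Tween20.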
A word on the IC50: it is the midpoint of a concentration-inhibition curve. Read a high IC50 as weaker potency. Molecule B1 yielded an IC50 of 0.061 nM.

B2: the IC50 stood at 0.166 nM.

In turn, B3 had an IC50 of 0.091 nM.

B4 gave an IC50 of 0.172 nM.

The molecule B5 gave an IC50 of 0.568 nM.

In turn, B6 displayed an IC50 of 0.768 nM.
